Test [1] concerns the target recombinant protein HR212 (HR2–linker 1–HR1–linker 2–HR2) (SARS-CoV-2 Wuhan hu-1 strain). Put plainly: SPR; Biacore 3000; HR212 fixed to a flow cell of a CM5 sensor; HR1 at 12.5, 25, 50, 100, 200 nM flowed over; 25°C. On the technique in general: SPR reads the build-up and loss of mass on a sensor chip optically.
For test [2] the target is unchanged. Put plainly: native gel or EMSA; native PAGE of purified HR212.

In general, Kd refers to the concentration at which binding is half-saturated. As a reminder, the koff is a measure of how fast the partners let go of each other. A word on the kon: it is a measure of how fast the partners come together. With “HR1 (heptad repeat 1 domain of the SARS-CoV-2 spike S2 subunit) (domain or fragment)”, in test [1], the Kd turned out to be 0.12 nM, the koff amounted to 1.4e-05 s⁻¹ and the association rate constant (kon) amounted to 120000 M⁻¹ s⁻¹.
As usually defined, the stoichiometry N is the number of molecules, sites or subunits per partner or assembly. On to “recombinant protein HR212 (HR2–linker 1–HR1–linker 2–HR2)”, for which the stoichiometry N in test [2] was determined as 3.

The record behind these values is publication PMC11808191.
